Results as given in paper PMC7954794, “Protein context shapes the specificity of SH3 domain-mediated interactions in vivo” (Nature Communications, 2021).

B1: YNL229C (protein, UniProt P23202 2-354, looked up)
Transcriptional regulator URE2: MNNNGNQVSNLSNALRQVNIGNRNSNTTTDQSNINFEFSTGVNNNNNNNSSSNNNNVQNNNSGRNGSQNNDNENNIKNTLEQHRQQQQAFSDMSHVEYSRITKFFQEQPLEGYTLFSHRSAPNGFKVAIVLSELGFHYNTIFLDFNLGEHRAPEFVSVNPNARVPALIDHGMDNLSIWESGAILLHLVNKYYKETGNPLLWSDDLADQSQINAWLFFQTSGHAPMIGQALHFRYFHSQKIASAVERYTDEVRRVYGVVEMALAERREALVMELDTENAAAYSAGTTPMSQSRFFDYPVWLVGDKLTIADLAFVPWNNVVDRIGINIKIEFPEVYKWTKHMMRRPAVIKALRGE
B2: YML035C (protein, UniProt P15274 1-810, looked up)
AMP deaminase: MDNQATQRLNDLSLEPAPSHDEQDGSGLVIDIDQRKIGDEQAGVVVDDETPPLEQQDSHESLAADSRNANFSYHENQQLLENGTKQLALDEHDSHSAILEQPSHSTNCSSSNIAAMNKGHDSADHASQNSGGKPRTLSASAQHILPETLKSFAGAPVVNKQVRTSASYKMGMLADDASQQFLDDPSSELIDLYSKVAECRNLRAKYQTISVQNDDQNPKNKPGWVVYPPPPKPSYNSDTKTVVPVTNKPDAEVFDFTKCEIPGEDPDWEFTLNDDDSYVVHRSGKTDELIAQIPTLRDYYLDLEKMISISSDGPAKSFAYRRLQYLEARWNLYYLLNEYQETSVSKRNPHRDFYNVRKVDTHVHHSACMNQKHLLRFIKHKLRHSKDEKVIFRDGKLLTLDEVFRSLHLTGYDLSIDTLDMHAHKDTFHRFDKFNLKYNPIGESRLREIFLKTNNYIKGTYLADITKQVIFDLENSKYQNCEYRISVYGRSLDEWDKLASWVIDNKVISHNVRWLVQIPRLYDIYKKTGIVQSFQDICKNLFQPLFEVTKNPQSHPKLHVFLQRVIGFDSVDDESKVDRRFHRKYPKPSLWEAPQNPPYSYYLYYLYSNVASLNQWRAKRGFNTLVLRPHCGEAGDPEHLVSAYLLAHGISHGILLRKVPFVQYLYYLDQVGIAMSPLSNNALFLTYDKNPFPRYFKRGLNVSLSTDDPLQFSYTREPLIEEYSVAAQIYKLSNVDMCELARNSVLQSGWEAQIKKHWIGKDFDKSGVEGNDVVRTNVPDIRINYRYDTLSTELELVNHFANFKRTIEEK
B3: YNL084C (protein, UniProt P39013 1-349, looked up)
Actin cytoskeleton-regulatory …: MPKLEQFEIKKYWQIFSGLKPIENKVNHDQVLPILYNSKLDSSVLNKIWFLADIDDDDNLDFEEFVICMRLIFDMVNKNISSVPDELPDWLIPGSKVNLIKERKKRKQIENADLPPKKEIKVDWYMSPDDLNQYEKIYNSCAKLTDGTITFNELSTKLSTKFFNISKTDLNKVWSLINPQNLPSIDRDPTFYFIHCLRQRNDLGAEIPASLPNSLAEVCNKKQLSYDLRSSQPPTKRKEEANEVDNLRDNGQNSSSDSSGSNVLSNEDSIKQKYASLTDDQVANMREQLEGLLNYKKSEKTQGGSKLSKRINIRSITDDLDNIEQQVEVLENYLNNKRHELQALQAEIN
B4: YNL307C (protein, UniProt P21965 2-375, looked up)
Protein kinase MCK1: STEEQNGVPLQRGSEFIADDVTSNKSNNTRRMLVKEYRKIGRGAFGTVVQAYLTQDKKNWLGPFAIKKVPAHTEYKSRELQILRIADHPNIVKLQYFFTHLSPQDNKVYQHLAMECLPETLQIEINRYVTNKLEMPLKHIRLYTYQIARGMLYLHGLGVCHRDIKPSNVLVDPETGVLKICDFGSAKKLEHNQPSISYICSRFYRAPELIIGCTQYTTQIDIWGLGCVMGEMLIGKAIFQGQEPLLQLREIAKLLGPPDKRFIFFSNPAYDGPLFSKPLFSGSSQQRFEKYFGHSGPDGIDLLMKILVYEPQQRLSPRRILAHQFFNELRNDDTFLPRGFTEPIKLPNLFDFNDFELQILGEFADKIKPTKVAE
B5: YNL106C (protein, UniProt P50942 1-1183, looked up)
Polyphosphatidylinositol …: MKILLSKQQTRKIAIVSETHGLVFRPINSKNSRRSTCAVELVPKAELNGNGFRRLSNHEIYGFIGLIEIEGLMFIATITGKSKVAQPIPNKTVNKIYAVDFFCLNNSKWDFMDIDSSGYPIVTNDGDFAISSPPSISTHSSRSSLRSSSSRSLNAQEQAPKHPCHELRKLLSNGSFYYSTDFDLTCTLQKRGFTEHSLSFDDFDREFMWNSFLMDEIITYRDRLDVTAKELLDQRGFLTTVIRGFAETIFSYINRLKVGLTIISRQSWKRAGTRFNARGIDDDGHVANFVETEMIMYSSQYCYAFTQIRGSLPIFWEQDTSLISPKIQITRSVEATQPTFDEHFIRLFKKYGPVHIINLLSTKSSEIQLSRRYKEQLKNSEKMKIGRDVFLTSFDFHRETSQDGFAAASRIIPKIRNTILDAGYFSYDVKEGRLISEQDGVFRTNCLDCLDRTNLIQQTISLAVFKLFLEDFRLVKPSSFIDDNEFVQKVNALWADNGDQISQIYTGTNALKSSYSRKGKMSFSGALSDATKSVSRMYINNFVDKGKQQNIDTLLGKLPHQQVVELYDPICEYVNERLLESEEKFTTHSNINLFVGTFNVNGNSRRADLSKWLFPIGDKFKPDVVVLGLQEVIELTAGSILNADYTKSSFWETMVTDCLNQYEEKYLLLRVEQMSSLLILFFARSDRAYNIKEVGGSTKKTGFGGITGNKGAVAIRFDYGATSFCFVNTHLSAGASNIDERRNDYNNIYRNITFPRSKTIPHHDSLFWLGDLNYRITLTNDEVRRELRAQKDGYIDRLLQYDQLTQEINEGVVFQGFKEPTLQFRPTYKYDYGTDNYDTSEKARTPSWTDRIIYKGENLHPLAYSDAPLKISDHKPVYAAYRANVKFVDEKEKLNLVEKLYAEYKNTHPEALTTGPDELSHARMEKQKESIPLDATVQSAGIKLIDLDDTSSCVSPLLSGPSPQPSVVGPGGLSNVSPDKSKLNVLPPPPPTSRHNKEPSSKLLSPTKEISIVSVSPRKGESNLPALERHSTPKPLPPVPALSLSKPVSLQKSSSELQHAKETIDNGKIVPRPCPPIRRKSSTAPDEISTSTKNSGVSTTEDPEPAKASTKPEKPPVVKKPHYLSVAANKLNTSQEHSIKVSPSNSKSEEELPCKKKSKPKVPAKNPELEKLSVHPLKPCDPN

What follows are molecules tested on ABP1 (assay: DHFR-PCA on solid medium, bait ABP1 (Fig. 1B)). Conditions: bait ABP1, label = prey; 2-4 replicates.
Assay type: cell-based, Saccharomyces cerevisiae
Text: Supplement 41467_2021_21873_MOESM8_ESM.xlsx, sheet "Fig1B" | column: medsize; medrep; Ratio; Score

Molecule | medrep (log2 median colony size normalized to plate background, PCA score)
B1 | 1.889
B2 | 3.81
B3 | 4.13
B4 | 1.521
B5 | 3.9733

Each molecule was assayed on 575 putative partners (preys) of 22 WT SH3-containing proteins (assay: DHFR-PCA on solid medium, WT and SH3-deleted baits (Fig. 1B)). Conditions: bait SLA1-2, DHFR-PCA, label = prey; Replicates 4 (2 for YCR009C, YDR388W).
Assay type: cell-based, Saccharomyces cerevisiae
Design: key to Score: 0: SH3-independent; 1: SH3-dependent PPIs; 2: SH3-inhibited PPIs
Text: To assess the requirement of SH3 domains for PPIs in vivo, we first measured binary interactions between 22 WT SH3-containing proteins (Supplementary Fig. 1A) as baits and 575 putative partners from their interconnected signaling networks using the dihydrofolate reductase protein–fragment complementation assay (DHFR-PCA) in the budding yeast Saccharomyces cerevisiae. About 33% (202/607) of the PPIs detected were described before, mostly by direct methods (Supplementary Fig. 1B, C)[11]. We repeated the experiments with baits in which the SH3s were individually replaced with a flexible linker by genome editing (SH3 domain deletion/stuffing, Fig. 1A). The stuffer DNA sequence ([…]) codes for a small flexible poly-Gly with Ser peptide ([…]) that is inspired by previous experiments[12],[13]. About a third of the SH3-containing protein interactome is qualitatively or quantitatively SH3-dependent (171 PPIs out of 607, Fig. 1B and Supplementary Fig. 1B, C). We validated the vast majority of the quantitative changes in low-throughput experiments and excluded that this is simply due to changes in protein abundance in most cases (Supplementary Fig. 1D–G). SH3-binding motifs[14] are more frequent in the SH3-dependent PPI partners when compared to sequences from random proteins, SH3-independent PPI partners or PPI partners that are stronger or gained following SH3 deletions (p values = 1.5 × 10^−17, 0.0038 and 2.1 × 10^−08, respectively; Mann–Whitney test, one-tailed, Fig. 1C). The changes we measure are therefore enriched for PPIs that depend on the direct interactions of the domains with the PPI partners.
The complete list of strains, primers, and gRNAs used in this study can be found in Supplementary Tables 1–3. All constructed yeast strains were validated by polymerase chain reaction (PCR) and confirmed by Sanger sequencing of the locus of interest. Bait strains for the DHFR-PCA experiments were constructed as follows. The genes of interest were fused at their genomic 3′ end by replacing the stop codon with a linker ([…]), the DHFR F[1,2] followed by a smaller linker (GGGGS), a 1× FLAG tag ([…]) and the NATMX4 resistance cassette via homologous recombination (all amplified from pAG25-DHFR[1,2]-linker-FLAG). The set of 615 prey strains (DHFR F[3] fusions in the BY4742 background) were retrieved from the Yeast Protein Interactome Collection[43] with the exception of 73 that were reconstructed (Supplementary Tables 1 and 2). Knockout strains were taken from the yeast knockout collection except for ABP1, BEM1, BZZ1, and SLA1, which were reconstructed by replacing the ORFs with the NATMX4 resistance cassette by homologous recombination in the BY4741 background.
Yeast SH3 domain genomic sequences were replaced by CRISPR–Cas9 genome editing. Each SH3 domain (as defined by the SMART database V8.0 except for Ysc84 SH3 (as defined by PROSITE), see Source Data for all SH3 sequences and Supplementary Table 1 for primers used) was specifically targeted by one gRNA[46]. Yeast competent cells were co-transformed with a pCAS plasmid (Addgene plasmid 60847[47]) expressing both the gRNA of interest and Streptococcus pyogenes Cas9[46] and a donor DNA sequence (stuffer) with 60 bp homology arms surrounding the SH3 DNA sequence. The Stuffer DNA was either PCR amplified or digested from a plasmid. The stuffer DNA sequence ([…]) codes for a small flexible linker ([…]) inspired by protein linkers used in structural biology[12],[13]. This type of linker is frequently used for fusing proteins without affecting the structure of the linked proteins.
The overall DHFR-PCA pipeline is based on Tarassov et al.[43] and the procedures have also been published as a visualized protocol. The screens were performed with robotically manipulated pin tools (BM5-SC1, S&P Robotics Inc.). First, the preys were cherry-picked from 96-well plates to omnitrays in a 384 format on YPD + HPH solid media. […]

Molecule | medrep (log2 median colony size normalized to plate background, PCA score)
B1 | 1.546
B2 | 2.073
B4 | 1.966
B5 | 1.813

Same assay, conditions: bait SLA1-2, label = prey

Molecule | Score
B1 | 1
B2 | 1
B4 | 1
B5 | 1

Same assay, conditions: bait SLA1-2, label = prey; only significant differences shown; PPIs completely lost have a ratio of 0.1, gained PPIs 2.5

Molecule | Ratio (SH3-deleted/WT medrep)
B1 | 0.1
B2 | 0.1
B4 | 0.1
B5 | 0.1

Same assay, conditions: bait SLA1-3, DHFR-PCA, label = prey; Replicates 4 (2 for YCR009C, YDR388W, YIL033C)

Molecule | medrep (log2 median colony size normalized to plate background, PCA score)
B1 | 1.546
B2 | 2.073
B3 | 4.605
B4 | 1.966
B5 | 1.813

Same assay, conditions: bait SLA1-3, label = prey

Molecule | Score
B1 | 0
B2 | 0
B3 | 0
B4 | 0
B5 | 1

Same assay, conditions: bait SLA1-3, label = prey; only significant differences shown; PPIs completely lost have a ratio of 0.1, gained PPIs 2.5

Molecule | Ratio (SH3-deleted/WT medrep)
B5 | 0.1
